{"source": "patent US20220064301A1", "about": "(XILIO DEVELOPMENT, published 2022)", "key": {"[1]": {"target": "T1, human CTLA4-Fc (R&D #7268-CT) (human, UniProt P16410 36-162)", "T1 construct": "Bought reagent coated on ELISA plates; also called human CTLA-Fc; not shown: Fc part of the bought fusion; not described", "T1 sequence (P16410 36-162 limits assumed)": "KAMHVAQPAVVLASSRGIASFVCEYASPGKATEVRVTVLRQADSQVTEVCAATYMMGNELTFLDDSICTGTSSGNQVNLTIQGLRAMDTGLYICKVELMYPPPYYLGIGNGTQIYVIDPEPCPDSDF", "assay": "huCTLA4-Fc binding ELISA (luminescence)", "description": "All ELISA were performed in a manner substantially similar to the description below or generally consistent with methods known in the art. Polystyrene 96-well microplates (Fisher #07-200-591) were coated with 1 μg/mL of human CTLA4-Fc (R&D #7268-CT) per well and stored overnight at 4° C. Plates were washed with 0.05% Tween in TBS (TBS-T), blocked with 1% BSA (Sigma Aldrich #B4287-25G), and washed with TBS-T. Serial dilutions of samples containing anti-CTLA4 antibodies described below were made in assay buffer (PBS+0.05% Tween+1% BSA), added to plate, and shaken orbitally at 100 RPM at room temperature for one hour. After washing with TBS-T, anti-human Kappa light chain [clone: SB81a]-HRP (Abcam #ab79115) diluted to 1:8000 in assay buffer was applied to the wells and shaken at room temperature for one hour. Plates were washed with TBS-T, HRP substrate (Super Signal Pico Chemiluminescent Substrate, Thermo #37069) was applied to plate, and luminescence was recorded using a spectrophotometer (BioTek). Data was analyzed with GraphPad Prism."}, "[2]": {"target": "T2, FcγRIIIa on Jurkat effector cells (FcγRIIIa reporter bioassay)", "T2 sequence (P08637 whole entry)": "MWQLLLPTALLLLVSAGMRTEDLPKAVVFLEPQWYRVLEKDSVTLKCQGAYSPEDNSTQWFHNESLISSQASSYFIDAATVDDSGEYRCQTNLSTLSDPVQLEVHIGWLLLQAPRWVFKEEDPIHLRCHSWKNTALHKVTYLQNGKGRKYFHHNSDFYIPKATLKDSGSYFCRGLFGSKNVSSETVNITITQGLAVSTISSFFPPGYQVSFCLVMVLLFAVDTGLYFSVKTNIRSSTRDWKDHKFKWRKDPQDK", "assay": "cell-based or functional assay"}, "[3]": {"target": "T2, FcγRIIIa on Jurkat effector cells …", "assay": "cell-based or functional assay", "remark": "listed apart in the source"}, "[4]": {"target": "T3, human CTLA4 (huCTLA4) (human, UniProt P16410 36-161, limits assumed)", "T3 sequence (P16410 36-161 limits assumed)": "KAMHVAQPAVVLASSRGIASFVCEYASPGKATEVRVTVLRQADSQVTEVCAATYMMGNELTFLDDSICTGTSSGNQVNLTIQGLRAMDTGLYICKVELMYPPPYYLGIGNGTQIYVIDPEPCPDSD", "assay": "SPR, Biacore T200, 37 C; reference ipilimumab", "description": "(§1) All Surface Plasmon Resonance (SPR) analysis were performed in a manner substantially similar to the description below or generally consistent with methods known in the art. SPR was performed on certain antibodies to assess binding between the antibody, or fragment thereof, and a target protein, such as human CTLA4 (huCTLA4), cynomolgus CTLA4 (cynoCTLA4), or FcγRIIIa (CD16a). […] SPR analysis was performed on a GE Biacore T200 instrument at 37° C. The antibody and isotype control (reference channel) were coupled at 100 RU immobilization level to CM5 chip (GE Healthcare). Peptides were synthesized and diluted into HBS-EP+ running buffer (GE Healthcare). The binding data were analyzed using Biacore Evaluation Software, version 3.0."}, "[5]": {"target": "cynomolgus CTLA4 (cynoCTLA4) (cynomolgus, UniProt G7PL88 36-161)", "sequence (G7PL88 entry or part of it limits assumed)": "as the sequence (P16410 36-161 limits assumed) above, with S14N, I18T, L106M counted along it", "assay": "SPR, Biacore T200, 37 C", "description": "as §1"}, "[6]": {"target": "T3, human CTLA4 (huCTLA4)", "assay": "SPR, Biacore T200, 37 C", "description": "as §1"}, "[7]": {"target": "T3, human CTLA4 (huCTLA4)", "assay": "SPR (Biacore), fit of the sensorgrams of FIG. 2A", "description": "as §1"}, "[8]": {"target": "T2, FcγRIIIa on Jurkat effector cells …", "assay": "cell-based or functional assay", "remark": "listed apart in the source"}, "[9]": {"target": "T4, rhCTLA4-Fc (recombinant human CTLA4-Fc) (human, UniProt P16410 36-162, limits assumed)", "T4 construct": "Used in SPR with the Fabs; not shown: Fc part; not described", "T4 sequence (P16410 36-162 limits assumed)": "as the sequence (P16410 36-162 limits assumed) above", "assay": "SPR, channel Ch1", "description": "as §1"}, "[10]": {"target": "T5, cynoCTLA4-Fc (cynomolgus, UniProt G7PL88 36-161)", "T5 construct": "also called cynomolgus CTLA4-Fc", "T5 sequence (G7PL88 entry or part of it limits assumed)": "as the sequence (P16410 36-161 limits assumed) above, with S14N, I18T, L106M counted along it", "assay": "SPR, channel Ch1", "description": "as §1"}, "[11]": {"target": "T4, rhCTLA4-Fc (recombinant human CTLA4-Fc)", "assay": "SPR, average of three channels", "description": "as §1"}, "[12]": {"target": "T5, cynoCTLA4-Fc", "assay": "SPR, average of three channels", "description": "as §1"}, "[13]": {"target": "T4, rhCTLA4-Fc (recombinant human CTLA4-Fc)", "assay": "SPR, channel Ch3", "description": "as §1"}, "[14]": {"target": "T5, cynoCTLA4-Fc", "assay": "SPR, channel Ch3", "description": "as §1"}, "[15]": {"target": "T4, rhCTLA4-Fc (recombinant human CTLA4-Fc)", "assay": "SPR, channel Ch2", "description": "as §1"}, "[16]": {"target": "T5, cynoCTLA4-Fc", "assay": "SPR, channel Ch2", "description": "as §1"}}, "note": "Like-named read-outs stand apart in the source and are kept apart here."}
{"binder": "Antibody 1-1 (version of humanized anti-CTLA4 Antibody 1 having a wild-type Fc region) (antibody, V domains shown, VL 25 / VH 26 are inferred from the parallel a)/b) order of the embodiments and because 30/31 go with the CDRs of Antibody 2; Full antibody with wild-type Fc) VH: QVQLQESGPGLVKPSETLSLTCSVTYHTITSGYDWTWIRKPPGKGMEWIGYISYSGNTNYNPSLKSRVTISRDTSKNQFFLKLSSVTAADTAVYYCASMMVPHYYVMDAWGQGTLVTVSSA VL: DIVMTQTPLSLSVTPGQPASISCRSSQSLLNSDGNTYLYWYLQKPGQSPQLLIYLVSKLGSGVPNRFSGSGSGTDFTLKISRVEAEDVGVYYCVQGTHDPWTFGGGTKVEIKR", "values": [{"measurement": "EC50", "setting": "[1]", "value": 0.41, "unit": "nM"}, {"measurement": "EC50 of reporter activation (RLU), ADCC FcγRIIIa reporter bioassay with CTLA4 target cells", "setting": "[2]", "value": 1.05, "unit": "ng/mL"}]}
{"binder": "Antibody 1-aFuc (afucosylated version of Antibody 1) (antibody, V domains shown, afucosylated Fc glycan, Variable domains inferred as for Antibody 1-1; Afucosylated full antibody) VH: QVQLQESGPGLVKPSETLSLTCSVTYHTITSGYDWTWIRKPPGKGMEWIGYISYSGNTNYNPSLKSRVTISRDTSKNQFFLKLSSVTAADTAVYYCASMMVPHYYVMDAWGQGTLVTVSSA VL: DIVMTQTPLSLSVTPGQPASISCRSSQSLLNSDGNTYLYWYLQKPGQSPQLLIYLVSKLGSGVPNRFSGSGSGTDFTLKISRVEAEDVGVYYCVQGTHDPWTFGGGTKVEIKR", "values": [{"measurement": "EC50", "setting": "[1]", "value": 0.41, "unit": "nM"}, {"measurement": "EC50 of reporter activation (RLU), ADCC FcγRIIIa reporter bioassay with CTLA4 target cells", "setting": "[3]", "value": 0.163, "unit": "ng/mL"}, {"measurement": "EC50 of reporter activation (RLU), ADCC FcγRIIIa reporter bioassay with CTLA4 target cells", "setting": "[2]", "value": 0.163, "unit": "ng/mL"}]}
{"binder": "Antibody 1-2 (version of Antibody 1 having a S239D mutation and an I332E mutation in the Fc region) (antibody, V domains shown, Variable domains inferred as for Antibody 1-1; Full antibody with S239D and I332E in the Fc region) VH: QVQLQESGPGLVKPSETLSLTCSVTYHTITSGYDWTWIRKPPGKGMEWIGYISYSGNTNYNPSLKSRVTISRDTSKNQFFLKLSSVTAADTAVYYCASMMVPHYYVMDAWGQGTLVTVSSA VL: DIVMTQTPLSLSVTPGQPASISCRSSQSLLNSDGNTYLYWYLQKPGQSPQLLIYLVSKLGSGVPNRFSGSGSGTDFTLKISRVEAEDVGVYYCVQGTHDPWTFGGGTKVEIKR", "values": [{"measurement": "EC50", "setting": "[1]", "value": 0.56, "unit": "nM"}, {"measurement": "EC50 of reporter activation (RLU), ADCC FcγRIIIa reporter bioassay with CTLA4 target cells", "setting": "[2]", "value": 0.327, "unit": "ng/mL"}]}
{"binder": "Antibody 2-1 (version of humanized anti-CTLA4 Antibody 2 having a wild-type Fc region) (antibody, Full antibody with wild-type Fc; copies: 2 + 2) VH: not shown VL: EIVLTQSPDFQSVTPKEKVTITCSANSALSYMYWYQQKPDQSPKLWVHGTSNLASGVPSRFSGSGSGTDFTLTINSLEAEDAATYYCHHWSNTQWTFGGGTKVEIKRTVAAPSVFIFPPSDEQLKSGTASVVCLLNNFYPREAKVQWKVDNALQSGNSQESVTEQDSKDSTYSLSSTLTLSKADYEKHKVYACEVTHQGLSSPVTKSFNRGEC", "values": [{"measurement": "EC50", "setting": "[1]", "value": 0.33, "unit": "nM"}]}
{"binder": "Antibody 2-6 (a version of Antibody 2 having a S239D mutation, an I332E mutation in the Fc region) (antibody, copies: 2 + 2) VH: not shown VL: EIVLTQSPDFQSVTPKEKVTITCSANSALSYMYWYQQKPDQSPKLWVHGTSNLASGVPSRFSGSGSGTDFTLTINSLEAEDAATYYCHHWSNTQWTFGGGTKVEIKRTVAAPSVFIFPPSDEQLKSGTASVVCLLNNFYPREAKVQWKVDNALQSGNSQESVTEQDSKDSTYSLSSTLTLSKADYEKHKVYACEVTHQGLSSPVTKSFNRGEC", "values": [{"measurement": "fold greater binding affinity than ipilimumab (by KD)", "setting": "[4]", "value": "~18", "unit": "fold"}, {"measurement": "Kd", "setting": "[5]", "value": 0.131, "unit": "nM"}, {"measurement": "Kd", "setting": "[6]", "value": 0.091, "unit": "nM"}, {"measurement": "koff", "setting": "[7]", "value": "3.33e-05", "unit": "s⁻¹"}, {"measurement": "kon", "setting": "[7]", "value": 366000, "unit": "M⁻¹ s⁻¹"}]}
{"binder": "Antibody 2-aFuc (afucosylated version of Antibody 2) (antibody, V domains shown, afucosylated Fc glycan, Afucosylated full antibody) VH: QVQLVQSGAEVKKPGSSVKVSCKASGYTFTNYFMNWVRQAPGQGLEWMGRVDPEQGRADYAEKFKKRVTITADKSTSTAYMELSSLRSEDTAVYYCARRAMDNYGFAYWGQGTLVTVSSA VL: EIVLTQSPDFQSVTPKEKVTITCSANSALSYMYWYQQKPDQSPKLWVHGTSNLASGVPSRFSGSGSGTDFTLTINSLEAEDAATYYCHHWSNTQWTFGGGTKVEIKR", "values": [{"measurement": "EC50", "setting": "[1]", "value": 0.36, "unit": "nM"}, {"measurement": "EC50 of reporter activation (RLU), ADCC FcγRIIIa reporter bioassay with CTLA4 target cells", "setting": "[3]", "value": 0.0177, "unit": "ng/mL"}, {"measurement": "EC50 of reporter activation (RLU), ADCC FcγRIIIa reporter bioassay with CTLA4 target cells", "setting": "[8]", "value": 0.0177, "unit": "ng/mL"}]}
{"binder": "Antibody 2-Fab (a Fab of Antibody 2) (Fab, V domains shown, Fab) VH: QVQLVQSGAEVKKPGSSVKVSCKASGYTFTNYFMNWVRQAPGQGLEWMGRVDPEQGRADYAEKFKKRVTITADKSTSTAYMELSSLRSEDTAVYYCARRAMDNYGFAYWGQGTLVTVSS VL: EIVLTQSPDFQSVTPKEKVTITCSANSALSYMYWYQQKPDQSPKLWVHGTSNLASGVPSRFSGSGSGTDFTLTINSLEAEDAATYYCHHWSNTQWTFGGGTKVEIKR", "values": [{"measurement": "Kd", "setting": "[9]", "value": 0.00453, "unit": "nM"}, {"measurement": "koff", "setting": "[9]", "value": "1.63e-06", "unit": "s⁻¹"}, {"measurement": "kon", "setting": "[9]", "value": 361000, "unit": "M⁻¹ s⁻¹"}, {"measurement": "Kd", "setting": "[10]", "value": 0.623, "unit": "nM"}, {"measurement": "koff", "setting": "[10]", "value": 0.000226, "unit": "s⁻¹"}, {"measurement": "kon", "setting": "[10]", "value": 363000, "unit": "M⁻¹ s⁻¹"}, {"measurement": "Kd", "setting": "[11]", "value": 0.00386, "unit": "nM"}, {"measurement": "Kd", "setting": "[12]", "value": 0.779, "unit": "nM"}, {"measurement": "Kd", "setting": "[13]", "value": 0.00555, "unit": "nM"}, {"measurement": "koff", "setting": "[13]", "value": "1.84e-06", "unit": "s⁻¹"}, {"measurement": "kon", "setting": "[13]", "value": 331000, "unit": "M⁻¹ s⁻¹"}, {"measurement": "Kd", "setting": "[14]", "value": 0.92, "unit": "nM"}, {"measurement": "koff", "setting": "[14]", "value": 0.000234, "unit": "s⁻¹"}, {"measurement": "kon", "setting": "[14]", "value": 254000, "unit": "M⁻¹ s⁻¹"}, {"measurement": "Kd", "setting": "[15]", "value": 0.00151, "unit": "nM"}, {"measurement": "koff", "setting": "[15]", "value": "5.19e-07", "unit": "s⁻¹"}, {"measurement": "kon", "setting": "[15]", "value": 345000, "unit": "M⁻¹ s⁻¹"}, {"measurement": "Kd", "setting": "[16]", "value": 0.794, "unit": "nM"}, {"measurement": "koff", "setting": "[16]", "value": 0.000229, "unit": "s⁻¹"}, {"measurement": "kon", "setting": "[16]", "value": 289000, "unit": "M⁻¹ s⁻¹"}]}
